# According to the supplement of paper PMC9170038:
# Test system: MS2 coat protein
# Assay: apparent KD of MS2 coat protein; designed switch direction (-1 OFF switch, 1 ON switch): 1; higher = weaker reporter binding
# Summary of the method: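 For each design, the apparent KD is the median over clusters of curves fitted to normalised cluster fluorescence. Clusters held RNA switches with common flanks, transcribed on Illumina chips by stalled E. coli RNA polymerase. These were titrated with SNAP-549-labelled MS2 coat protein, doubling from 0.7 or 1.5 nM to 3 µM, without input, with 200 uM small-molecule ligand, or with an oligonucleotide input.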
# [1] = input ligand: microRNA oligo, concentration not stated
# [2] = Eterna round: R95, input ligand: FMN 200 uM
# [3] = Eterna round: R95, input ligand: microRNA oligo, concentration not stated
# [4] = Eterna round: R95, input ligand: none
Sequence,apparent KD of MS2 coat protein (input ligand: FMN 200 uM) [nM],apparent KD of MS2 coat protein [1] [nM],apparent KD of MS2 coat protein (input ligand: none) [nM],apparent KD of MS2 coat protein [2] [nM],apparent KD of MS2 coat protein [3] [nM],apparent KD of MS2 coat protein [4] [nM]
"CAUCGUUUGAUAGGAUAUCGCUAUACAUGAGGAUCACCCAUGUUUACCACGCUGGUUUUUCAUACCGAGAAGGAUUCUGAUGAC [salish99_SSNG02_r04_014] (Eterna round: R96, puzzle: Same State NG 2)",27.3,27.7,30.2,,,
"CCAACGUACAAUUUAGAUCUACAUGAGGAUCACCCAUGUACGGAGGAUAUCAGCUCGAUUAGAGCUGAGAAGGCCGAAUUAAUU [SSNG3/2-A2] (Eterna round: R96, puzzle: Same State NG 3)",65.7,119,430,,,
"CCAAUGUACAAUUUAGAUCUACAUGAGGAUCACCCAUGUACAGAGGAUAUCAGCUCGUUUAGAGCUGAGAAGGCUGAAUUAAUU [SSNG3/3-A3] (Eterna round: R96, puzzle: Same State NG 3)",111,139,327,,,
"CCCUCACAUGAGGAUCACCCAUGUCCUAGCAGGUCAGGAUAUAGCCCGCAUCCGCUGCGGCUAGAAGGGACAGCUG [JR_SS001_Sub610] (Eterna round: R96, puzzle: Same State 1)",148,135,176,,,
"CCGAUGCUUAUAAACAUGAGGAUCACCCAUGUGAGGACACAUGAGGAUAUGCAGGUCAAAGACUUGCAGAAGGCAUAGCGUCGG [JL SSNG3 3.89] (Eterna round: R96, puzzle: Same State NG 3)",40.7,158,305,,,
"CCGUAGAUGGUAGGAUAUGGAGCCUUAUUGGCUCCAGAAGGAUCGAAAACAUGAGGAUCACCCAUGUCGGCGGUCAAUAGACCG [Eli NG1ss - 84] (Eterna round: R96, puzzle: Same State NG 1)",21.8,43.1,34.1,,,
CGAUGAAACUAAGGAAGAAGAGUUGAAGUACAUGAGGAUCACCCAUGUCAGAGCUUUUUGCUCGUCAUGAACAGGAA [JR_SHM208a_Sub005] (puzzle: Sensor for hsa-mir-208a),,,,51.9,32.2,52.8
"CGCAAAGUGUGAGGAUAUUCACACAUGAGGAUCACCCAUGUGACGGUUCCGGCCAGAGGAGAGCAGGAGAAGGCACAACGCGAG [Eternabot solution 5] (Eterna round: R96, puzzle: Same State NG 2)",36.1,101,120,,,
"CGCAGGCACGUAGGAUAUCUAGCGUGGGAGGCUAGAGAAGGAUGGAAUAACAUGAGGAUCACCCAUGUCGCCUCGCGGAAAUAA [Diorverire] (Eterna round: R96, puzzle: Same State NG 1)",15.5,17.4,32.8,,,
"CGGAAAAUCGUAGGAUAUCUAGGAUAUGAACGAGGAUCACCCGAGCAGCAUCAGCGCAUCAGAGGAGAGAAGGACGAUGAUGCG [pwkr ssNG2 2F5 2FMN.5] (Eterna round: R96, puzzle: Same State NG 2)",1930,1100,1510,,,
"CGGGUAAUCGUAGGAUAUCUAGGAUAUGAACGAGGAUCACCCGAGCAGCAUCAGCGCAUCAGAGGAGAGAAGGACGAUGAUGCG [pwkr ssNG2 2F5 2FMN.18] (Eterna round: R96, puzzle: Same State NG 2)",164,199,470,,,
"CGGGUGAUCGUAGGAUAUCUAGGAUAUGAACGAGGAUCACCCGAGCAGCAUCAGCGCAUCAGAGGAGAGAAGGACGAUGAUGCG [pwkr ssNG2 2F5 2FMN.19] (Eterna round: R96, puzzle: Same State NG 2)",20.5,21.7,34,,,
"CGGGUGGUUCUAGGAUAUCUAGGAUAUGGACGAGGAUUACCCGAGCAGCAUCAGCGCACCAGAGGAGAGAAGGAGAGUCAUGCG [pwkr ssNG2 2F5 2FMN.9] (Eterna round: R96, puzzle: Same State NG 2)",105,72.5,86.8,,,
CGUCCAGCCUGAGCUGGACAAAAGCAUGUACAUGAGGAUCACCCAUGUUCAUGUACAAGCUUUUUGCUCGUCUUACU [salish99_208a_r3_092x] (puzzle: Sensor for hsa-mir-208a),,,,590,15.7,793
CUAUCUACAGGUGUCAUUGCUCGUCUUAUACAUGAGGAUCACCCAUGUUAUAGCCCGGUGCUUGCGCUGGGCUGAUU [JL ViennaUCT Tearor mod 5] (puzzle: Sensor for hsa-mir-208a),,,,114,15.5,99.9
CUCAAAACAAGUUGCAGUGUUCGUCUUUAACAUGAGGAUCACCCAUGUAAUAGCCUGGUGGAAGCGCUCGGGCCACC [Qurabila] (puzzle: Sensor for hsa-mir-208a),,,,23.4,15.6,25.1
"CUCAACAACACAGGAUAUCCAGGGAAAAGACCUGGAGAAGGGUGACCAACAUGAGGAUCACCCAUGUGACGGCUAGACCGUCUG [Isquce] (Eterna round: R96, puzzle: Same State NG 1)",593,24,249,,,
"CUGAGCGAUCAAGGAUAUCACGUCGAUUAGACGUGAGAAGGUGAUCAUAACAUGAGGAUCACCCAUGUAUUACAUGAAGCUCAG [SSNG1/2-A2] (Eterna round: R96, puzzle: Same State NG 1)",386,146,1620,,,
"CUGAGGAAGAGAGAGGAUAUCCAAAGGAAAACAUGAGGAUCACCCAUGUAAAAGGUAGGAAAUUGGGAGAAGGCUCAAGAGAGAG [salish99-ss2-068] (Eterna round: R96, puzzle: Same State 2)",32.3,38.3,39.3,,,
"CUGAGGUGUCAAGGAUAUGCUACCGUUUCGGUAGCAGAAGGUGAUCACAUGAGGAUCACCCAUGUAUGCAUGCGUGAGCGUGCU [JL SSNG1 3.60] (Eterna round: R96, puzzle: Same State NG 1)",,17.8,,,,
"CUGUAUCGCGGAGGAUAUGGGCUGAGACCAGGGCAACCCUGGUCAACAUGAGGAUCACCCAUGUCCCAGAAGGCCGCGAUGCUA [Diaraenve] (Eterna round: R96, puzzle: Same State NG 2)",19.7,73.6,113,,,
"CUUUUUAGUGCAGGAUAUGAUCAACAUGAGGAUCACCCAUGUGGCGUUGUGAGUAGGGAGAGUGAUCAGAAGGGCGUCUCCGCG [SS-NG2-LRO11] (Eterna round: R96, puzzle: Same State NG 2)",72,36.1,59.9,,,
"GAAAAGACAUGAGGAUCACCCAUGUGAAAGCCUAAGGGCCCACAGGAUAUACAGUGAAAAGCACUGUAGAAGGGUGAUAAAGAC [Ordibidi] (Eterna round: R96, puzzle: Same State NG 3)",228,271,172,,,
GAAAAGGCAACGCAGGAUAUGAAAGGUGAAACAUGAGGAUCACCCAUGUGCUACCUUCCGAUAAAUCAGAAGGGCGACGCCAAAA [Leceave] (puzzle: Same State 2),,,,15.4,15.6,19.4
GACAUUCUAUCUCAGGAUAUCAUGUCAAAGACAUGAGGAUCACCCAUGUACCAGGAAACUGGUUAUGAGAAGGGAGAUAGAAUGA [Mat - Same State 2 - Mod - D46] (puzzle: Same State 2),,,,103,1880,176
"GACCGCGAGGAAGGAUAUGGAGCCUUAUUGGCUCCAGAAGGUCCAUAAAGGACAUGAGGAUCACCCAUGUGGGCUGAAGCGGUC [Fiskers NG1ss - 9] (Eterna round: R96, puzzle: Same State NG 1)",22,25.8,35.1,,,
"GACCGCGAGGAAGGAUAUGGAGCCUUAUUGGCUCCAGAAGGUCCAUAAAGGACAUGAGGAUCACCCAUGUGGGUUGGAGCGGUC [Fiskers NG1ss - 0] (Eterna round: R96, puzzle: Same State NG 1)",32.8,96.2,176,,,
GAGAAGAGGGACAAGGAUAUGUCAGGAGAGACAUGAGGAUCACCCAUGUAGAGGAAGAGAGAGAGACAGAAGGUGUCGAGAGCGA [JR_SS2_Sub015] (puzzle: Same State 2),,,,118,66,130
GAGAGAGGAAGCGAGGAUAUCGUGUUGGGUACAUGAGGAUCACCCAUGUUGUAGGUAGAGGUAGGCGAGAAGGCGCAGGAGAGGU [JR_SS2_Sub096] (puzzle: Same State 2),,,,105,67,195
"GAGAGAGGGCGAGGAUAUUCGGUGAUAAUGAUGGGAGAAGGCGCAGACAUGAGGAUCACCCAUGUGGGAAUAAUCCAGAGAGAG [Parity 13 - Jieux - Same State NG 1] (Eterna round: R96, puzzle: Same State NG 1)",151,111,185,,,
